One assay has as its system ENaC. Put plainly: Amiloride-sensitive short circuit current in FRT epithelia with ENaC: Nedd4-2 dose response with SGK, SGKY298A or GFP. It is filed as cell-based. The note with it: FRT epithelia with α-, β-, γENaC, increasing amounts of Nedd4-2 (0–0.2 µg), no SGK; amiloride 10 µM; n = 18. The protocol: To test the hypothesis that the interaction of the Nedd4-2 WW-domains with the SGK PY motif is required for SGK to influence Nedd4-2 function, we co-expressed α-, β- and γENaC in FRT epithelia with either wild type SGK or SGKY298A along with increasing amounts of Nedd4-2, and measured the amiloride-sensitive short circuit current.
Figure 4 The SGK PY motif is necessary for SGK to inhibit Nedd4-2. Amiloride-sensitive short-circuit sodium current (relative to 0 µg of Nedd4-2) in FRT cells 48 hr after transfection with α-, β- and γENaC and SGK (closed circles) or SGKY298A (open circles) or GFP (closed squares), in the presence of increasing amounts of Nedd4-2, n = 18. Nedd4-2 is expressed as a fraction of the amount of ENaC cDNA. Expression of SGK and SGKY298A was reported in Figure 1B of Snyder et al..
Fischer rat thyroid (FRT) cells were grown on permeable filter supports (Snapwell™, Corning USA or Millicell PCF, both with […] pore size, 12 mm diameter) in F-12 Coon's media with 5% fetal calf serum (Sigma), 100 U/ml penicillin, and 100 µg/ml streptomycin at 37°C. One day after seeding, cells were cotransfected with α-, β- and γENaC (0.07 µg each), 0.6 µg wildtype or mutant SGK, and 0–0.2 µg Nedd4-2 (Fig. 4 only). Total DNA was held constant (1 µg/millicell) using cloning vector DNA. The plasmids were mixed with Lipofectamine 2000 (Invitrogen) or TFX 50 (Promega, Madison, WI; 7.9 µg/millicell) in serum free F12 Coon's media for 15 minutes and transferred to the apical surface of the monolayer. One-six hours later, the apical media was replaced with F-12 Coon's media containing 5% fetal calf serum and amiloride (10 µM). Short-circuit current was measured […] after transfection in modified Ussing chambers connected to a voltage clamp (South Campus Electronics, Dunedin, New Zealand or Warner Instruments). The apical and basolateral surfaces were bathed in (in mM) 135 NaCl, 1.2 CaCl2, 1.2 MgCl2, 2.4 K2HPO4, 0.6 KH2PO4, 10 HEPES, pH 7.4, at 37°C and bubbled with O2. Amiloride-sensitive short-circuit current (Isc-amiloride) was determined as the difference in current with and without amiloride (10 µM) in the apical bathing solution. Data are presented as relative Isc-amiloride (Isc-amiloride relative) that was obtained by normalizing the Isc-amiloride to that of control cells transfected with αβγENaC in the same experiment. Transepithelial resistance (Rt) was monitored by applying repetitive voltage potential pulses (5 mV for 1 sec at 120 sec intervals) across the epithelium.

A further assay has as its system SGK. Put plainly: Co-immunoprecipitation of Nedd4-2 with SGK in COS7 cells. It is filed as binding, human. The note with it: Nedd4-2-FLAG and SGK-HA, IP anti-HA, blot anti-FLAG, data not shown. The protocol:
Co-immunoprecipitation was used to characterize an in vitro interaction between Nedd4-2 and SGK. Nedd4-2-FLAG and SGK-HA were co-expressed in COS7 cells, SGK was immunoprecipitated with anti-HA, and the presence of Nedd4-2 in the immunoprecipitates was assessed by western blotting with anti-FLAG. […] We reasoned that SGK would be rapidly turned over in the cells, and this would be enhanced by overexpression of active Nedd4-2, since Nedd4-2 is known to induce degradation of SGK [23]. Therefore we co-expressed a stable form of SGK (ΔN60SGK-HA, lacking the first 60 amino acids of SGK), together with a ligase-dead form of Nedd4-2 (Nedd4-2C821A–FLAG).
(A) ΔN60SGK-HA and Nedd4-2C821A–FLAG were transiently co-expressed, or expressed alone as indicated, in COS7 cells. Complexes were immunoprecipitated with anti-HA antibody. Immunoprecipitates were analyzed by 10% SDS-PAGE and sequential western blotting (IB) with anti-FLAG antibody (Nedd4-2) and anti-HA antibody (ΔN60SGK). Expression of the proteins (5% input) is shown in the bottom panel, n = 3. Either ΔN60SGK-HA (B, E) or SGK-FLAG (C, D) was transiently expressed in COS7 cells. […] Bound SGK was analyzed by immunostaining with anti-FLAG/HA antibody. […]
COS7 cells were co-transfected with ΔN60SGK-HA and Nedd4-2C821A-FLAG. […] The beads were washed four times in T-TBS and analysed by SDS-PAGE and Western blotting with anti-FLAG (Sigma).

B1: Nedd4-2: ubiquitin ligase, Nedd4-family member, human (protein)
chain: MERPYTFKDFLLRPRSHKSRVKGFLRLKMAYMPKNGGQDEENSDQRDDMEHGWEVVDSNDSASQHQEELPPPPLPPGWEEKVDNLGRTYYVNHNNRTTQWHRPSLMDVSSESDNNIRQINQEAAHRRFRSRRHISEDLEPEPSEGGDVPEPWETISEEVNIAGDSLGLALPPPPASPGSRTSPQELSEELSRRLQITPDSNGEQFSSLIQREPSSRLRSCSVTDAVAEQGHLPPPSAPAGRARSSTVTGGEEPTPSVAYVHTTPGLPSGWEERKDAKGRTYYVNHNNRTTTWTRPIMQLAEDGASGSATNSNNHLIEPQIRRPRSLSSPTVTLSAPLEGAKDSPVRRAVKDTLSNPQSPQPSPYNSPKPQHKVTQSFLPPGWEMRIAPNGRPFFIDHNTKTTTWEDPRLKFPVHMRSKTSLNPNDLGPLPPGWEERIHLDGRTFYIDHNSKITQWEDPRLQNPAITGPAVPYSREFKQKYDYFRKKLKKPADIPNRFEMKLHRNNIFEESYRRIMSVKRPDVLKARLWIEFESEKGLDYGGVAREWFFLLSKEMFNPYYGLFEYSATDNYTLQINPNSGLCNEDHLSYFTFIGRVAGLAVFHGKLLDGFFIRPFYKMMLGKQITLNDMESVDSEYYNSLKWILENDPTELDLMFCIDEENFGQTYQVDLKPNGSEIMVTNENKREYIDLVIQWRFVNRVQKQMNAFLEGFTELLPIDLIKIFDENELELLMCGLGDVDVNDWRQHSIYKNGYCPNHPVIQWFWKAVLLMDAEKRIRLLQFVTGTSRVPMNGFAELYGSNGPQLFTIEQWGSPEKLPRAHTCFNRLDLPPYETFEDLREKLLMAVENAQGFEGVD
modifications: left off: FLAG, C-terminal, kept
notes: ubiquitin ligase, Nedd4-family member, human
As to B1, in the assay with ENaC, the “inhibition of ENaC by Nedd4-2 in the absence of SGK (in words)” value is on record as “inhibited ENaC in a dose-dependent manner”. Also, in the assay on SGK, the “co-immunoprecipitation with SGK (in words)” value is on record as “co-precipitated with SGK but the amount of Nedd4-2 co-precipitated was small”.

The values above are taken from publication PMC2921341, “Interaction of Serum- and Glucocorticoid Regulated Kinase 1 (SGK1) with the WW-Domains of Nedd4-2 Is Required for Epithelial Sodium Channel Regulation” (PLoS ONE, 2010).
